Our source for the Km and kcat values is PMC3546728, “Bacterial Over-Expression and Purification of the 3′phosphoadenosine 5′phosphosulfate (PAPS) Reductase Domain of Human FAD Synthase: Functional Characterization and Homology Modeling” (International Journal of Molecular Sciences, 2012).

In general, Km refers to the substrate concentration at which the rate is half of its maximum. As usually defined, the kcat is the number of substrate molecules converted per active site and unit of time at saturation.

Holding throughout (experiment): purified protein
What all share (type): biochemical, Homo sapiens

One series deals with T1, O=P(O)(O)OP(=O)(O)O.
T1 construct: C-terminal PAPS reductase domain, residues 329-587; vector pH6EX3; E. coli Rosetta (DE3); theoretical 31499 Da, ~28 kDa on SDS-PAGE
The conditions noted are these: reverse reaction, 0.5 μM FAD, 5 mM MgCl2, 50 mM Tris/HCl pH 7.5, 37 °C.

Series [1] has as its system T2, Nc1ncnc2c1ncn2[C@@H]1O[C@H](COP(=O)(O)OP(=O)(O)OP(=O)(O)O)[C@@H](O)[C@H]1O.
T2 construct: C-terminal PAPS reductase domain, residues 329-587; vector pH6EX3; E. coli Rosetta (DE3); theoretical 31499 Da, ~28 kDa on SDS-PAGE
The settings on record: 2 μM FMN, 5 mM MgCl2, 50 mM Tris/HCl pH 7.5, 37 °C.

The subject of series [2] is T3, Cc1cc2nc3c(=O)[nH]c(=O)nc-3n(C[C@H](O)[C@H](O)[C@H](O)COP(=O)(O)O)c2cc1C.
T3 construct: C-terminal PAPS reductase domain, residues 329-587; vector pH6EX3; E. coli Rosetta (DE3); theoretical 31499 Da, ~28 kDa on SDS-PAGE
The settings on record: 100 μM ATP, 5 mM MgCl2, 50 mM Tris/HCl pH 7.5, 37 °C.

6-His-Δ1-328-hFADS (Homo sapiens), sequence (chain, as listed by the source mutant): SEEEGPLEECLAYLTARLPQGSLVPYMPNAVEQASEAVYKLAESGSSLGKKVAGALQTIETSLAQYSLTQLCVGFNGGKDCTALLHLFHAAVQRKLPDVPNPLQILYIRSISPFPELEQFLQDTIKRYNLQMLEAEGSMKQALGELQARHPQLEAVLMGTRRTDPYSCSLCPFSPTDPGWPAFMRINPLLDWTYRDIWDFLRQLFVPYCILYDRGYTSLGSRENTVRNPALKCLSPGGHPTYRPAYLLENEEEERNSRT

With 6-His-Δ1-328-hFADS (Homo sapiens), the Km amounted to 92.0 ± 0.5 µM in the series on O=P(O)(O)OP(=O)(O)O, 6.23 ± 1.5 µM in series [1] and 0.24 ± 0.06 µM in series [2]. The figures for the kcat (in the series on O=P(O)(O)OP(=O)(O)O; in series [1]; in series [2]) were 0.0037 ± 0.0009 s⁻¹, 0.042 ± 0.001 s⁻¹ and 0.042 ± 0.001 s⁻¹, respectively.
